Results from publication PMC9462685 (Science Advances, 2022).

Legend:
[1] = target: Sr35 (Triticum monococcum) (UniProt S5ABD6); experiment: MST
[2] = target: Sr35 (Triticum monococcum) (UniProt S5ABD6); experiment: cryo-EM structure
[3] = target: 6×His-tagged AvrSr35 (residues 27 to 578) (Puccinia graminis f. sp. tritici); experiment: AUC

6×His-tagged AvrSr35 (residues 27 to 578) (natural protein)
Kd [1]: 7.8 µM
stoichiometry N [2]: 1
stoichiometry N [3]: 2
